From US20030180744, “High affinity oligonucleotide ligands to growth factors” (GILEAD SCIENCES, INC., published 2003)

T1: KGF (hKGF) (Homo sapiens, UniProt P21781 P21781:32-194)
T1 sequence: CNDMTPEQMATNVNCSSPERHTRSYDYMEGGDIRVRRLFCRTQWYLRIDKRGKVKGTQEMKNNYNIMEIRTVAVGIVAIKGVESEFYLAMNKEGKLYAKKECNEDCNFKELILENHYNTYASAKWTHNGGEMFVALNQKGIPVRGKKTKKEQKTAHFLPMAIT

B1: 48N (ssRNA)
RNA: GGGAGGACGAUGCGGGGCAAAGGAAGUUGGAAUCGGGACUAAGUAGUGUGUGGCCAGACGACUCGCCCGA
modifications: 2'-NH2 pyrimidines
B2: 28N (ssRNA)
RNA: GGGAGGACGAUGCGGUUGCUCUACAAUGACGCGGUGACUCCGCAGUUCUUGGACACAGACGACUCGCCCGA
modifications: 2'-NH2 pyrimidines
B3: 54F (ssRNA)
RNA: GGGAGGACGAUGCGGAAGAUCUCCCAACUGCUGUGGCUAAUAAUUCUCUCCGCGUCCCCAGACGACUCGCCCGA
modifications: 2'-F pyrimidines
B4: 5F (ssRNA)
RNA: GGGAGGACGAUGCGGCGUCCCGAGUCACGCUGUCCUGAUAACCUUCUCUGUGCCCAGACGACUCGCCCGA
modifications: 2'-F pyrimidines
B5: 34N (ssRNA)
RNA: GGGAGGACGAUGCGGGCGGGAAGAGCUAAUGGAAGUGGAAUCAGUCACAGUGCGGCAGACGACUCGCCCGA
modifications: 2'-NH2 pyrimidines
B6: 23F (ssRNA)
RNA: GGGAGGACGAUGCGGCCCUACCACUUUUUCCCUCUACUGUUAUCCUGUCCCCCAGACGACUCGCCCGA
modifications: 2'-F pyrimidines
B7: 11N (ssRNA)
RNA: GGGAGGACGAUGCGGGGGCCGGAUUUGAACCGACGACUUCGGGUUAUGAGCCCGACGUCAGACGACUCGCCCGA
modifications: 2'-NH2 pyrimidines
B8: 25N (ssRNA)
RNA: GGGAGGACGAUGCGGGAGGGAAUGAGGAAACAACUAGCAGAUAACCGAGCUGGCCAGACGACUCGCCCGA
modifications: 2'-NH2 pyrimidines
B9: 7F (ssRNA)
RNA: GGGAGGACGAUGCGGCGGGUACUCUUCGCCAGCUCCUCCAAGCGCGACCUGUGCCCAGACGACUCGCCCGA
modifications: 2'-F pyrimidines
B10: 24N (ssRNA)
RNA: GGGAGGACGAUGCGGGUGGGAAGAUGAGCCGGUCGGCAGUAAUGUGACACUGCGGCAGACGACUCGCCCGA
modifications: 2'-NH2 pyrimidines
B11: 55F (ssRNA)
RNA: GGGAGGACGAUGCGGUCCGUCAUAACGGCCAUAAACUGCGAAUACUCCCUGGCCCAGACGACUCGCCCGA
modifications: 2'-F pyrimidines
B12: 2F (ssRNA)
RNA: GGGAGGACGAUGCGGGCAUUCGUCAAUACCUUGUUUUAUUCCUUUUCUAGCGGCCCAGACGACUCGCCCGA
modifications: 2'-F pyrimidines
B13: 69N (ssRNA)
RNA: GGGAGGACGAUGCGGGUAGGGAGUAGGACAGACAUAACAGUGCAACCAUCGUGGCCAGACGACUCGCCCGA
modifications: 2'-NH2 pyrimidines
B14: 60F (ssRNA)
RNA: GGGAGGACGAUGCGGUGACAUGGAAUUUUCUACGGGCCCGAUCCUGCCAGCCGUGUGCAGACGACUCGCCCGA
modifications: 2'-F pyrimidines
B15: 58F (ssRNA)
RNA: GGGAGGACGAUGCGGGAACUAAUGGCCGUGAUUAACCAAUGCAGGCUUCCUGCGCCAGACGACUCGCCCGA
modifications: 2'-F pyrimidines
B16: 72N (ssRNA)
RNA: GGGAGGACGAUGCGGGAGGGGAAAAUGAGACCGACAGAUUGACGGAAGUACUGGGCAGACGACUCGCCCGA
modifications: 2'-NH2 pyrimidines
B17: 8F (ssRNA)
RNA: GGGAGGACGAUGCGGUUUCGAAUAGGGCCAUUUCUCACUAGCUAUCCUACCCUGCCCAGACGACUCGCCCGA
modifications: 2'-F pyrimidines
B18: 22N (ssRNA)
RNA: GGGAGGACGAUGCGGAUGGAGCUGAAAUCAGACGACUCGCCCGA
modifications: 2'-NH2 pyrimidines
B19: 9F (ssRNA)
RNA: GGGAGGACGAUGCGGAUAAUGGCUAGAACUAGCUCGCAUCUUGGUGUCCGGUGCCCAGACGACUCGCCCGA
modifications: 2'-F pyrimidines
B20: 57F (ssRNA)
RNA: GGGAGGACGAUGCGGUGACUAUCUGGCUCGAUCCAAUCACCCGAGCCCACCGCGCCAGACGACUCGCCCGA
modifications: 2'-F pyrimidines
B21: 35N (ssRNA)
RNA: GGGAGGACGAUGCGGGCUUAGGGAAAUGGUUCUGAGGUGGUCAGACGACUCGCCCGA
modifications: 2'-NH2 pyrimidines
B22: 47N (ssRNA)
RNA: GGGAGGACGAUGCGGGAAGGGUAGGAAGGUCAAGAGGAAACAGCGCUUCGGGGUGCAGACGACUCGCCCGA
modifications: 2'-NH2 pyrimidines
B23: 16N (ssRNA)
RNA: GGGAGGACGAUGCGGAAGUUCUAACAAGUUAGUGGAAGGUUCCACUUGAAUGUACAGACGACUCGCCCGA
modifications: 2'-NH2 pyrimidines
B24: 55N (ssRNA)
RNA: GGGAGGACGAUGCGGACACACAAGUGAAGGUCAGACGCGAAUUACGUGGGUGGGCAGACGACUCGCCCGA
modifications: 2'-NH2 pyrimidines
B25: 71N (ssRNA)
RNA: GGGAGGACGAUGCGGAAACGGCGUGGCAAAAGUGAGGGGGUAGGAUGUACCAUGGGUCAGACGACUCGCCCGA
modifications: 2'-NH2 pyrimidines
B26: 36N (ssRNA)
RNA: GGGAGGACGAUGCGGGAAGGGAACAGGAUAAGACAAGUCGAACAAAGCCGAGGUGCAGACGACUCGCCCGA
modifications: 2'-NH2 pyrimidines
B27: 3F (ssRNA)
RNA: GGGAGGACGAUGCGGAUCGUAAUCGCCACUACUACUUUCCGAACCCGCACGUGGCCAGACGACUCGCCCGA
modifications: 2'-F pyrimidines
B28: 11F (ssRNA)
RNA: GGGAGGACGAUGCGGUGAUGGCGACCAGUCAAACCGGUGCUUUUACUCCCCCGCCAGACGACUCGCCCGA
modifications: 2'-F pyrimidines
B29: 24F (ssRNA)
RNA: GGGAGGACGAUGCGGUGGUCUCCCUAGAUCUACAGCACUUCCAUCGCAUUGGGCCAGACGACUCGCCCGA
modifications: 2'-F pyrimidines
B30: 22F (ssRNA)
RNA: GGGAGGACGAUGCGGCCUGAAGUACAGGCUCUAAACUCCAAGCGCGACCGUCCGCCAGACGACUCGCCCGA
modifications: 2'-F pyrimidines
B31: 53F (ssRNA)
RNA: GGGAGGACGAUGCGGAUCAAAAGCACUCAUUCCCGUGCUCGCUUCAUUGGUCCCCCAGACGACUCGCCCGA
modifications: 2'-F pyrimidines
B32: 10N (ssRNA)
RNA: GGGAGGACGAUGCGGUAGCUGCUGUCAUGCAAGACACUAGAAGAUUAAGAUGGGGCAGACGACUCGCCCGA
modifications: 2'-NH2 pyrimidines
B33: 60N (ssRNA)
RNA: GGGAGGACGAUGCGGCCCCUUAGCUCAGUGGUUAGAGCAGACGACUCGCCCGA
modifications: 2'-NH2 pyrimidines
B34: 54N (ssRNA)
RNA: GGGAGGACGAUGCGGAGAACCAACAGAGCCCCCUGGUGGUGGGGGAAGGAUUCUCAGACGACUCGCCCGA
modifications: 2'-NH2 pyrimidines

molecular target: T1, KGF (hKGF); assay: filter; DPBS, 37 C; settings: tags: Upstate Biotechnology; label: 32P

Question: Which Kd does the source give for B1 here?
Answer: 1.34 nM

Question: With B2 as the binder, how does the Kd read?
Answer: 2.54 nM

Question: B3 was tested. Which Kd did it give?
Answer: 1.23 nM

Question: How did the Kd turn out when B4 was run?
Answer: 2.53 nM

Question: For B5, which Kd is on record?
Answer: 0.8 nM

Question: For B6, which Kd is on record?
Answer: 2.52 nM

Question: Which Kd does the source give for B7 here?
Answer: 1.28 nM

Question: For B8, which Kd is on record?
Answer: 0.87 nM

Question: B9 was tested. Which Kd did it give?
Answer: 3.69 nM

Question: How did the Kd turn out when B10 was run?
Answer: 1.16 nM

Question: With B11 as the binder, how does the Kd read?
Answer: 2.52 nM

Question: With B12 as the binder, how does the Kd read?
Answer: 1.77 nM

Question: With B13 as the binder, how does the Kd read?
Answer: 15.2 nM

Question: Which Kd does the source give for B14 here?
Answer: 2.1 nM

Question: For B15, which Kd is on record?
Answer: 2.52 nM

Question: How did the Kd turn out when B16 was run?
Answer: 7.67 nM

Question: For B17, which Kd is on record?
Answer: 2.63 nM

Question: With B18 as the binder, how does the Kd read?
Answer: 5.7 nM

Question: For B19, which Kd is on record?
Answer: 0.83 nM

Question: Which Kd does the source give for B20 here?
Answer: 1.2 nM

Question: With B21 as the binder, how does the Kd read?
Answer: 2.32 nM

Question: With B22 as the binder, how does the Kd read?
Answer: 1.76 nM

Question: For B23, which Kd is on record?
Answer: 1.4 nM

Question: Which Kd does the source give for B24 here?
Answer: 1.25 nM

Question: Which Kd does the source give for B25 here?
Answer: 3.52 nM

Question: How did the Kd turn out when B26 was run?
Answer: 8.27 nM

Question: How did the Kd turn out when B27 was run?
Answer: 4.47 nM

Question: B28 was tested. Which Kd did it give?
Answer: 3.74 nM

Question: How did the Kd turn out when B29 was run?
Answer: 2.02 nM

Question: For B30, which Kd is on record?
Answer: 2.75 nM

Question: B31 was tested. Which Kd did it give?
Answer: 0.7 nM

Question: With B32 as the binder, how does the Kd read?
Answer: 1.1 nM

Question: With B33 as the binder, how does the Kd read?
Answer: 7.38 nM

same assay, conditions: tags: Upstate Biotechnology; label: 32P; dumbbell (predicted)

Question: For B34, which Kd is on record?
Answer: 5.35 nM
